Reference: patent US20050136043A1, “TGFbeta signaling inhibitors” (Ludwig Institute for Cancer Research, priority 2003, published 2005)

Key:
GST-TβR-I [1] = molecular target: T1, GST-TβR-I (Homo sapiens, UniProt P36897, T204D); experiment: GST-TβR-I autophosphorylation assay; format: biochemical; settings: peptides at 1 and 10 μM, FIG. 4A
T1 construct: the complete cytoplasmic part (amino acid residues 148-503) of constitutively active TβR-I (T204D) FLAG-tagged at the C-terminus; made in house; host or cells: E. coli
T1 sequence (P36897 148-503 T204D): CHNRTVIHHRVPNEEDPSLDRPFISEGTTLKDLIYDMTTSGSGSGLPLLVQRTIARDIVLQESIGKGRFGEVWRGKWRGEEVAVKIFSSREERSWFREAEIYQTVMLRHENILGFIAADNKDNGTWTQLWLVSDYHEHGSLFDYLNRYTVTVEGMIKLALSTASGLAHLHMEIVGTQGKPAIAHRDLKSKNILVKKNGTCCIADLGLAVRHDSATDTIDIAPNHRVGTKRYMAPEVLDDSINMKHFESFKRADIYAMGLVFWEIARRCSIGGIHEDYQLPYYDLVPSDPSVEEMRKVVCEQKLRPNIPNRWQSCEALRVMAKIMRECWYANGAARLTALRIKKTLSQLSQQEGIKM
Description: (§1) In vitro kinase assay: GST-TβRI activity was assayed in vitro using the known TβR-I substrates GST-Smad3deltaMH1, GST-Smad2; GST-Smad1 was used as a control for specificity. The reaction mixture (20 μl) contained 20 mM HEPES (pH 7.4), 10 mM MgCl2, 2 mM MnCl2, 1 mM dithiothreitol (DTT), 5 μM ATP plus 0.5 μCi [γ^32P]ATP (Redivue, Amersham Biosciences), and inhibitors at different concentrations. The reaction was initiated by an addition of 0.02 μg purified GST-TβRI, followed by incubation at 22° C. for 20 min. Reaction was terminated by addition of 5 μl of 5× SDS-sample buffer. Samples were subjected to SDS-PAGE followed by analysis in a FujiX2000 phosphorimager. For all in vitro enzyme assays, the percent inhibition was calculated as 100×(1-Ai/A0), where Ai and A0 are levels of GST-Smad phosphorylation in the presence and absence of inhibitors, respectively. […] Phosphorylated GST-Smad3deltaMH1 and autophosphorylated GST-TβRI were analyzed by tryptic phosphopeptide mapping, as described previously.
A GST-TβR-I autophosphorylation assay was performed in the absence or presence of antp-Sm2S (SEQ ID NO:3), antp-Sm2A (SEQ ID NO:2) and antp-Sm5A (SEQ ID NO:4) peptides at concentrations of 1 and 10 μM, as indicated (FIG. 4A).

[2] = system: phosphorylation of endogenous Smad2 by TβR-I in Mv1Lu cells; experiment: TGFβ1-dependent phosphorylation of endogenous Smad2 in Mv1Lu cells (pS2 immunoblot); format: cell-based; settings: Mv1Lu cells pretreated with peptide, 15 min TGFβ1, FIG. 6A
Mv1Lu cells = experiment: Growth inhibition assay, [3H]thymidine incorporation; format: cell-based; settings: peptide 50 μM, TGFβ1 0.1 ng/ml, 24 hours; for Reversion of the inhibitory action of TGFβ1 on DNA synthesis: FIG. 7
Description: Growth inhibition assay: Growth inhibition assay with MV1Lu cells, using evaluation of [^3H]thymidine incorporation, was performed as described earlier. Briefly, cells were preincubated with peptides for 30 min, and then treated or not with TGFβ1 (0.1 ng/ml) for 24 h. During the last two hours of incubation, [^3H]thymidine was added. Radioactivity incorporated into DNA was measured in a scintillation counter. No cytotoxic effects of peptides were observed after 24 h incubation with cells, as evaluated by observation of cells in a microscope.
To explore whether the antp-Sm2A (SEQ ID NO:2) peptide can interfere with the TGFβ-dependent effects on cells, we performed an assay with Mv1Lu cells, which are widely used in studies of TGFβ effects and are potently growth-inhibited by TGFβ [29]. […] [^3H]thymidine was added to cells for last two hours of incubation, and radioactivity incorporated into DNA was measured.

GST-TβR-I [3] = molecular target: T1, GST-TβR-I; experiment: Phosphorylation of GST-Smad2 by GST-TβR-I, in vitro kinase assay; format: biochemical; settings: for Inhibition of phosphorylation at the C-terminus of GST-Smad2: FIG. 4B; for Concentration at which effect of Sm2 peptides was observed / Concentration of maximal inhibition: in vitro kinase assay; for Concentration of maximal inhibition: data not shown
Description: as §1
Phosphorylation of GST-Smad2 by GST-TβR-I was performed in an in vitro kinase assay (FIG. 4B). The peptides were added as indicated.

[4] = molecular target: T2, constitutively active TβR-I (Homo sapiens, UniProt P36897, T204D); experiment: In vitro kinase assay with immunoprecipitated constitutively active TβR-I expressed in Mv1Lu cells; format: biochemical; settings: immunoprecipitated from Mv1Lu cells, data not shown
T2 construct: made in house; host or cells: Mv1Lu cells (expressed, immunoprecipitated)
T2 sequence (P36897 34-503 T204D): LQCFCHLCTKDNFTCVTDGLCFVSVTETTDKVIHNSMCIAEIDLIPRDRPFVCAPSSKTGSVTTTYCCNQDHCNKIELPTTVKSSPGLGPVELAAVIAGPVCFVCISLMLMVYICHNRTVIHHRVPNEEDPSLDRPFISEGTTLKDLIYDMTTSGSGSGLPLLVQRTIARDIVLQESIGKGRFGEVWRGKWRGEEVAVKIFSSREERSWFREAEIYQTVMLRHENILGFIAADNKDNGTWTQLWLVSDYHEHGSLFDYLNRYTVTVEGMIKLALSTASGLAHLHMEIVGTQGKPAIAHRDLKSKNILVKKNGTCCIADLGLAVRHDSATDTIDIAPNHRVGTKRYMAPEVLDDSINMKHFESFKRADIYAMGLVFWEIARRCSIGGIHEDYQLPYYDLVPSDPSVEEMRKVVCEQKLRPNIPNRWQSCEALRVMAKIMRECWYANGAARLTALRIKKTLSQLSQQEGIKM

Sequence	Inhibition of autophosphorylation of GST-TβR-I (GST-TβR-I [1])	Inhibition of TGFβ1-dependent phosphorylation of endogenous Smad2 compared to nontreated cells [2]	Inhibition of [3H]thymidine incorporation in response to TGFβ1 (Mv1Lu cells)	Reversion of the inhibitory action of TGFβ1 on DNA synthesis (Mv1Lu cells)	Inhibition of phosphorylation at the C-terminus of GST-Smad2 (GST-TβR-I [3])	Concentration at which effect of Sm2 peptides was observed (GST-TβR-I [3])	Concentration of maximal inhibition (GST-TβR-I [3])	Inhibition of autophosphorylation of TβR-I [4]	Effect of peptides on TGFβ1-dependent phosphorylation of endogenous Smad2 [2]
RQIKIWFQNRRMKWKKTQMGSPSVRCSAMA (listed as Homo sapiens) [antp-Sm2A]	had a stronger effect	67%	26%	reverted to a significant extent	inhibited	10 µM	200 µM	inhibited autophosphorylation	–
RQIKIWFQNRRMKWKKTQMGSPSVRCSSMS (listed as Homo sapiens) [antp-Sm2S, penetratin fused to the C-terminus of wild-type Smad2]	inhibited autophosphorylation	–	–	reverted to a significant extent	less pronounced	10 µM	200 µM	inhibited autophosphorylation	weaker affect
